Assay results reported in the supplement of paper PMC10567573.

B1: ZNF263 (parent)
chain: LLRHQRIHTGERPYKCPECGKSFS
B2: CDS2 (parent)
chain: LIVVTQSHLVIHNLFEGMIWFIVP

Variants of: B1
Test: protein stability index of a GFP-peptide fusion (GPS, HEK-293T) (PSI 1-6); higher = more stable
Conditions: c terminus: a fixed tail appended
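Further: lentivirally expressed fusions sorted by FACS into six bins by GFP to DsRed ratio, PSI derived from sequencing read proportions per bin multiplied by bin number.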

Protein stability index of substitutions, site by site:
L1: I 2.06; F 3.5; G 2.73; A 2.82; E 2.29; C 4.12; H 2.44; D 2.62

Variants of: B2
Test: as above
Conditions: c terminus: a fixed tail appended

Protein stability index, by site and new letter:
I11: V 2.52; C 3.04; E 2.39; F 3.51; G 2.27; N 4.03; W 1.04; S 3.42; K 4.09; L 2.48; D 3.58; R 2.2; M 2.84; H 1.57
T5: V 2.65; P 3.86; R 3.33; G 4.08; C 4.62; A 2.62; Y 2.99; M 3.04; W 2.72; L 2.71; H 3.62; S 5.49; Q 3.1; K 2.97; E 2.95; I 2.58
H8: F 3.38; I 2.81; N 3.36; S 4.08; D 4.35; T 2.91; E 2.35; V 4.43; G 4.59; C 3.31; R 2.81; M 2.48; W 2.77; L 3.47
I2: D 1.02; R 3.79; H 3.16; F 1.75; V 3.01; S 2.69; K 4.33; W 3.71; C 1.83; G 2.41; L 3.84; T 2.77; M 2.66
H12: P 1.35; L 3.7; C 3.91; R 1.5; D 3.58; K 2.6; T 4.2; G 3.39; I 1.85; M 2.67; A 3.32
M18: R 1.99; F 3.12; V 4.17; Q 2.68; W 2.66; G 2.85; C 4.05; Y 3.67; S 2.98; K 1.96; A 4.48; P 2.89; D 3.2; E 4.08; I 3.09
N13: C 3.03; E 2.93; Y 2.44; G 2.9; V 3.45; K 2.81; T 1.61; A 4.23; M 4.66; F 2.94; R 2.08; I 4.67; H 1.83; D 2.63; S 3.02; P 3.48; L 3.44
G17: S 3.9; L 3.83; V 3.48; A 3.15; D 2.93; M 3.13; Q 2.63; E 2.55; H 2.8; Y 1.68; W 2.35; I 1.85; R 3.21; P 2.82; N 2.29
V10: M 2.77; G 1.83; C 2.23; I 4.56; D 1.79; T 2.15; Q 4.6; W 2.46; P 1.52; K 2.67; L 1.96; F 3.01; A 3.19; H 2.88
F15: L 2.41; R 2.03; M 4.48; N 3.64; V 2.72; S 3.64; W 4.64; I 3.58; P 2.8; E 2.13; Q 2.25; K 3.4
W20: K 1.61; R 2.57; D 2.87; G 2.19; S 3.64; I 3.21; F 2.83; V 3.06; C 3.16; N 3.08; M 2.28; E 2.38; P 2.6; Q 4.66; H 3.23
P24: L 2.19; M 2.59; S 1.99
